Results published in paper PMC12057046, “Elucidation of short linear motif-based interactions of the MIT and rhodanese domains of the ubiquitin-specific protease 8” (Biology Direct, 2025).

What follows are substances tested on USP8 MIT domain (assay: Peptide-phage display-based deep mutational scanning (DMS), USP8 MIT domain). Details: bait USP8_MIT__P40818_1_142; EFCAB12 (Q6NXP0) 2-17; pair of mutant with wild-type wt_00016 (MDDDYEAYHSLFLSLL); sheet S3.B_ProP-PD_pairs.
Type: binding, human
Protocol: The residues of these 16 amino acid-long wild-type peptides were substituted to all natural amino acid residues, except cysteine, in all positions (Supplementary Table S2A). The designed peptide sequences were reverse-translated to oligonucleotides optimized to the codon usage of E. coli. The required flanking regions (5´[…] and 3´[…]) were added for library construction. The library was generated as previously described.
Four rounds of phage selections were carried out using the second generation human disorderome library or the constructed deep mutational scanning library. At least three individual replicates were used for each bait protein. 10 µg of GST-tagged proteins or GST control (diluted in PBS from the stock of proteins kept in the purification elution buffer) were immobilized in 100 µL PBS on a 96-well MaxiSorp (Nunc) plate overnight at 4 °C. The plates were incubated with blocking buffer (with 0.5% BSA in PBS) for 1 h at 4 °C followed by washing with 0.05% Tween 20 in PBS four times. The naïve phage library (10^11 CFU) was diluted in 1/5th volume PEG/NaCl (20% PEG-8000, 0.4 M NaCl) and 1X PBS, incubated on ice for 10 min and centrifuged at 10,000 [drawing 3] g for 10 min. The pellet was resuspended in the volume of PBS (100 µL/ well). The GST-coated control plate was incubated with 100 µL library per well in PBS for 1 h at 4 °C to remove non-specific binders. The supernatant was transferred to the target wells and incubated for 2 h at 4 °C. The wells were washed five times with 0.05% Tween 20 in PBS and the bound phages were eluted with 100 µL per well log-phase E. coli OmniMAX by incubating at 37° C while shaking. After 30 min, M13KO7 helper phages were added and incubated for an additional 45 min. The bacterial cultures were transferred to 1 mL 2YT supplemented with 100 µg/mL carbenicillin, 30 µg/mL kanamycin and 0.3 mM IPTG and grew overnight at 37 °C while shaking. The following day the cultures were centrifuged for 10 min at 2,000 [drawing 4] g, 4 °C. 1/10th volume of 10 [drawing 5] PBS was added to adjust the pH and heated at 65 °C for 10 min. The phage pools from each round were used as in-phages for the next round of selections.
The samples were prepared for NGS as previously described. Peptide-coding regions of the enriched phage pools were amplified and barcoded using Phusion High-Fidelity PCR Master Mix (Thermo Fisher) for 22 cycles and confirmed by 2% agarose gel electrophoresis. The PCR products were normalized with 25 µL Mag-bind Total Pure NGS beads (Omega Biotek) and 10 µL of each eluted sample (Qiagen Elution Buffer) was pooled and cleaned-up with a PCR purification kit (Qiagen). The PCR product was confirmed by 2% agarose electrophoresis and the band was extracted with QIAquick Gel extraction Kit (Qiagen) and eluted with 30 µL TE buffer. The dsDNA was quantified using QuantiT PicoGreen dsDNA Assay Kit (Thermo Fisher) and sent for NGS (Illumina MiSeq v3, 1 × 150 bp read setup, 20% PhiX, NGI SciLifeLab facility, Sweden). The NGS data were demultiplexed, adapter regions were trimmed and sequences with an average quality of at least 20 were translated to peptide sequences. The NGS data were analysed using custom Python scripts. The total read NGS counts for each selection experiment of each peptide sequence were compiled and annotated in PepTools (https://slim.icr.ac.uk/tools/peptools/). Since ProP-PD is in essence a competition assay, the possibility of the input phage library influencing the selection outcome was explored. For this, the Pearson correlation coefficient, p-value and coefficient of determination were calculated for all peptide NGS count fractions in the library coverage vs. in the selections results (Supplementary Fig. S7; Supplementary Table S2B; Supplementary Table S3B; Supplementary Table S7B). Pearson correlation coefficient and p-value were calculated using Python’s SciPy library. […]

| Substance | hit_pair_ratio |
| --- | --- |
| ADDDYEAYHSLFLSLL [mut_04321] | 112.64 |
| DDDDYEAYHSLFLSLL [mut_04322] | 1.56 |
| EDDDYEAYHSLFLSLL [mut_04323] | 6.98 |
| FDDDYEAYHSLFLSLL [mut_04324] | 112.64 |
| GDDDYEAYHSLFLSLL [mut_04325] | 7.04 |
| HDDDYEAYHSLFLSLL [mut_04326] | 42.37 |
| IDDDYEAYHSLFLSLL [mut_04327] | 43.89 |
| LDDDYEAYHSLFLSLL [mut_04329] | 1.88 |

Same assay, conditions: sheet S3.B_ProP-PD_pairs; bait USP8_MIT__P40818_1_142; ratio within the wild-type/mutant pair, larger over smaller averaged fraction (direction from fraction_wt and fraction_mut)

| Substance | hit_pair_ratio |
| --- | --- |
| AEVSDIESRIAALRAA | 40.88 |
| EEVSDIESRIAALRAA | 7.79 |
| FEVSDIESRIAALRAA | 3.72 |

These substances were tested against T1, USP8 Rhod domain (Homo sapiens, UniProt P40818) (assay: Peptide-phage display-based deep mutational scanning (DMS), USP8 Rhod domain). Details: PSSM, library USP8_DMS, days 2,3; position 7.
T1 construct: USP8 Rhod (174–317) (UniProt: P40818); GST (cleaved yes); made in house; host or cells: Escherichia coli BL21-Gold (DE3)
T1 sequence (P40818 174-317): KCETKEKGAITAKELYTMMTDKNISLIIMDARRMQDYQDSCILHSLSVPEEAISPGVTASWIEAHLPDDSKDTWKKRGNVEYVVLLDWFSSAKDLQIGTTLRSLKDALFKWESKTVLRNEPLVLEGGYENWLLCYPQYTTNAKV
Type: binding

| Substance | enrichment_relative_to_wt at position 7 (wt G) | proportion of amino acid at position 7 (wt G) |
| --- | --- | --- |
| KIAA1614_Q5VZ46_569_584 G7E (MERVLGELSSPLRLLP; UniProt Q5VZ46 569-584, looked up, variant G7E) | 1.36 | 0.02 |
| KIAA1614_Q5VZ46_569_584 G7F (MERVLGFLSSPLRLLP; UniProt Q5VZ46 569-584, looked up, variant G7F) | 3 | 0.0448 |
| KIAA1614_Q5VZ46_569_584 G7H (MERVLGHLSSPLRLLP; UniProt Q5VZ46 569-584, looked up, variant G7H) | -7.58 | 0.00204 |
| KIAA1614_Q5VZ46_569_584 G7I (MERVLGILSSPLRLLP; peptide 569-584; UniProt Q5VZ46 569-584, looked up, variant G7I) | -2.84 | 0.00545 |
| KIAA1614_Q5VZ46_569_584 G7K (MERVLGKLSSPLRLLP; peptide 569-584; UniProt Q5VZ46 569-584, looked up, variant G7K) | -96 | 0.000161 |
| KIAA1614_Q5VZ46_569_584 G7L (MERVLGLLSSPLRLLP; UniProt Q5VZ46 569-584, looked up, variant G575L) | -3 | 0.00507 |
| KIAA1614_Q5VZ46_569_584 G7Q (MERVLGQLSSPLRLLP; UniProt Q5VZ46 569-584, looked up, variant G7Q) | 1.89 | 0.03 |
| KIAA1614_Q5VZ46_569_584 G7R (MERVLGRLSSPLRLLP; UniProt Q5VZ46 569-584, looked up, variant G7R) | -19 | 0.000822 |
| KIAA1614_Q5VZ46_569_584 G7S (MERVLGSLSSPLRLLP; UniProt Q5VZ46 569-584, looked up, variant G7S) | -1.8 | 0.0086 |
| KIAA1614_Q5VZ46_569_584 G7T (MERVLGTLSSPLRLLP; peptide 569-584; UniProt Q5VZ46 569-584, looked up, variant G7T) | 30 | 0.46 |
| KIAA1614_Q5VZ46_569_584 G7W (MERVLGWLSSPLRLLP; UniProt Q5VZ46 569-584, looked up, variant G7W) | -172 | 8.98e-5 |
| KIAA1614_Q5VZ46_569_584 G7Y (MERVLGYLSSPLRLLP; peptide 569-584; UniProt Q5VZ46 569-584, looked up, variant G7Y) | -2 | 0.00809 |

Same assay, conditions: PSSM, library USP8_DMS, days 2,3; position 10

| Substance | enrichment_relative_to_wt at position 10 (wt S) | proportion of amino acid at position 10 (wt S) |
| --- | --- | --- |
| KIAA1614_Q5VZ46_569_584 S10E (MERVLGGLSEPLRLLP; UniProt Q5VZ46 569-584, looked up, variant S10E) | -77 | 0.00734 |
| KIAA1614_Q5VZ46_569_584 S10H (MERVLGGLSHPLRLLP; UniProt Q5VZ46 569-584, looked up, variant S10H) | -1.37 | 0.41 |
| KIAA1614_Q5VZ46_569_584 S10I (MERVLGGLSIPLRLLP; UniProt Q5VZ46 569-584, looked up, variant S10I) | -231 | 0.00245 |
| KIAA1614_Q5VZ46_569_584 S10V (MERVLGGLSVPLRLLP; peptide 569-584; UniProt Q5VZ46 569-584, looked up, variant S10V) | -328 | 0.00172 |

Same assay, conditions: PSSM, library USP8_DMS, days 2,3; position 15

| Substance | enrichment_relative_to_wt at position 15 (wt L) | proportion of amino acid at position 15 (wt L) |
| --- | --- | --- |
| KIAA1614_Q5VZ46_569_584 L15A (MERVLGGLSSPLRLAP; UniProt Q5VZ46 569-584, looked up, variant L15A) | -207 | 0.00469 |
| KIAA1614_Q5VZ46_569_584 L15I (MERVLGGLSSPLRLIP; UniProt Q5VZ46 569-584, looked up, variant L15I) | -277 | 0.00349 |
| KIAA1614_Q5VZ46_569_584 L15N (MERVLGGLSSPLRLNP; peptide 569-584; UniProt Q5VZ46 569-584, looked up, variant L15N) | -89 | 0.0109 |
| KIAA1614_Q5VZ46_569_584 L15V (MERVLGGLSSPLRLVP; UniProt Q5VZ46 569-584, looked up, variant L15V) | -151 | 0.00642 |

Same assay, conditions: ProP-PD pairs, bait USP8_Rhodanese__P40818_174_317; wild-type/mutant pair, wild type KIAA1614 569-584 GMERVLGGLSSPLRLL (wt_00013)

| Substance | hit_pair_ratio |
| --- | --- |
| KMERVLGGLSSPLRLL | 10.10 |
| LMERVLGGLSSPLRLL | 64.39 |
| MMERVLGGLSSPLRLL | 6.27 |
| NMERVLGGLSSPLRLL | 1.70 |
| RMERVLGGLSSPLRLL | 3.82 |
| VMERVLGGLSSPLRLL | 53.66 |
| WMERVLGGLSSPLRLL | 1.49 |
| YMERVLGGLSSPLRLL | 10.06 |

Same assay, conditions: bait USP8_Rhodanese__P40818_174_317; wild-type/mutant pair ratio of averaged fractions; negative values where mutant fraction is higher

| Substance | hit_pair_ratio |
| --- | --- |
| PMERVLGGLSSPLRLL | 1.96 |
| QMERVLGGLSSPLRLL | -4.33 |
| SMERVLGGLSSPLRLL | -2.25 |
| TMERVLGGLSSPLRLL | -2.57 |

Same assay, conditions: wild type/mutant pair; bait USP8_Rhodanese__P40818_174_317; vs hit_library_peptide_wt GLALWEAKMKQLAERA; negative where mutant fraction exceeds wild type; ProP-PD pairs (sheet S7.B)

| Substance | hit_pair_ratio |
| --- | --- |
| KLALWEAKMKQLAERA | 238.03 |
| NLALWEAKMKQLAERA | 107.46 |
| QLALWEAKMKQLAERA | 553.50 |
| RLALWEAKMKQLAERA | 1107.01 |
